# Source: patent publication US20190112340A1
# Tests used:
# [1] = target: sc9-10 DS-Cav1 Q98C, Q361C S46G-E92D-L95M-S215P-I217P-I221M-R429K-K465Q (Long (VR26)); assay: BLI (Octet), F on Ni-NTA tips, Fab in solution
# sc10 DS-Cav1 = assay: BLI (Octet), F on Ni-NTA tips, Fab in solution
# [2] = target: RSV F sc9-9 DS-Cav1 (human RSV subtype A (strain A2)) (UniProt P03420); assay: BLI (Octet), F on Ni-NTA tips, Fab in solution
# [3] = target: sc9-10 DS-Cav1 Q98C, Q361C L95M-I221M-R429K (B18537); assay: BLI (Octet), F on Ni-NTA tips, Fab in solution
# sc9 DS-Cav1-105Q = assay: BLI (Octet), F on Ni-NTA tips, Fab in solution
# [4] = target: sc9-10 DS-Cav1 A149C, Y458C S46G-N67I-E92D-S215P-K465Q (A2); assay: BLI (Octet), F on Ni-NTA tips, Fab in solution
# sc11 DS-Cav1 = assay: BLI (Octet), F on Ni-NTA tips, Fab in solution
# [5] = target: sc9-10 DS-Cav1 N183GC,N428C; assay: BLI (Octet), F on Ni-NTA tips, Fab in solution
# [6] = target: RSV F sc9 DS-Cav1 (human RSV subtype A (strain A2)); assay: BLI (Octet), F on Ni-NTA tips, Fab in solution
# sc9-24 DS-Cav1 = assay: BLI (Octet), F on Ni-NTA tips, Fab in solution
# [7] = target: RSV F DS-Cav1 (human RSV subtype A (strain A2)) (UniProt P03420); assay: BLI (Octet), F on Ni-NTA tips, Fab in solution
# [8] = target: sc9-10 DS-Cav1 N183GC, N428C S46G-N67I-E92D-S215P-K465Q (A2); assay: BLI (Octet), F on Ni-NTA tips, Fab in solution
# sc9-19 DS-Cav1 = assay: BLI (Octet), F on Ni-NTA tips, Fab in solution
# [9] = target: RSV F sc9-10 DS-Cav1 (human RSV subtype A (strain A2)); assay: BLI (Octet), F on Ni-NTA tips, Fab in solution
# [10] = target: sc9-10 DS-Cav1 A149C, Y458C S46G-E92D-S215P-K465Q (A2); assay: BLI (Octet), F on Ni-NTA tips, Fab in solution
# [11] = target: sc9-10 A DS-Cav1 A149C, Y458C; assay: BLI (Octet), F on Ni-NTA tips, Fab in solution
# [12] = target: sc9-10 DS-Cav1 A149C, Y458C S46G-S215P-K465Q (A2); assay: BLI (Octet), F on Ni-NTA tips, Fab in solution
# [13] = target: bRSV F RB94 DS-Cav1 (bovine RSV, strain RB94) (UniProt P23728); assay: Fab binding to purified bRSV F trimer (Octet BLI as in Example 1)
# [14] = target: bRSV F 391-2 DS-Cav1 (bovine RSV, strain 391-2) (UniProt P22167); assay: as above
# [15] = target: bRSV F ATue51908 DS-Cav1 (bovine RSV, strain ATue51908) (UniProt P22167); assay: as above
# [16] = target: bRSV F ATue51908 sc9-10 DS-Cav1 A149C Y458C (bovine RSV, strain ATue51908 (NP_048055.1)); assay: as above
# [17] = target: bRSV F 391-2 sc9 DS-Cav1 Q98C Q361C (bovine RSV, strain 391-2) (UniProt P22167); assay: as above
# [18] = target: bRSV F strain 391-2 sc9-10, DS-Cav1, Q98C-Q361C (bovine RSV, strain 391-2); assay: as above
# sc8 DS-Cav1 = assay: BLI (Octet), F on Ni-NTA tips, Fab in solution
# sc9-10 Cav1only 369-455 = assay: ELISA after 1 week at 4 °C
# [19] = target: sc9-10 N183GC N428C Long CAV1only; assay: ELISA after 1 week at 4 °C
# sc9-10 Cav1only = assay: ELISA after 1 week at 4 °C
# sc9-10 Cav1only 99-360 = assay: ELISA after 1 week at 4 °C
# sc9-10 Cav1only 146-458 = assay: ELISA after 1 week at 4 °C
# sc9-10 Cav1only 99-361 = assay: ELISA after 1 week at 4 °C
# sc9-10 Cav1only 100-361 = assay: ELISA after 1 week at 4 °C
# sc9-10 Cav1only 98-362 = assay: ELISA after 1 week at 4 °C
# sc9-10 Cav1only 100-362 = assay: ELISA after 1 week at 4 °C
# [20] = target: sc9-10 A149C Y458C Long CAV1only; assay: ELISA after 1 week at 4 °C
# [21] = target: RSV F DS-Cav1 (human RSV subtype A (strain A2)) (UniProt P03420); assay: ELISA after 1 week at 4 °C
# sc9-10 Cav1only 100-360 = assay: ELISA after 1 week at 4 °C
# sc9-10 Cav1only 98-361 = assay: ELISA after 1 week at 4 °C
# RSVF Cav1only = assay: ELISA after 1 week at 4 °C
# sc9-10 Cav1only 99-362 = assay: ELISA after 1 week at 4 °C
# RSVF dFP = assay: ELISA after 1 week at 4 °C
# sc9-10 Cav1only 98-360 = assay: ELISA after 1 week at 4 °C
# [22] = target: sc9-10 DS-Cav1 A149C, Y458C S46G-N67I-E92D-S215P-K465Q (A2); assay: BLI (Octet), antibody reactivity over time at 60 °C
# [23] = target: sc9-10 DS-Cav1 N183GC,N428C; assay: as above
# [24] = target: RSV F DS-Cav1 (human RSV subtype A (strain A2)) (UniProt P03420); assay: as above
# [25] = target: sc9-10 DS-Cav1 N183GC, N428C S46G-N67I-E92D-S215P-K465Q (A2); assay: as above
# [26] = target: sc9-10 DS-Cav1 A149C, Y458C S46G-E92D-S215P-K465Q (A2); assay: as above
# [27] = target: sc9-10 A DS-Cav1 A149C, Y458C; assay: as above
# [28] = target: sc9-10 DS-Cav1 A149C, Y458C S46G-S215P-K465Q (A2); assay: as above
substance,measurement,setting,value
5C4 (Fab),Kd,[1],35.8 nM
same,Kd,sc10 DS-Cav1,38.1 nM
same,Kd,[2],17.9 nM
same,Kd,[3],101 nM
same,Kd,sc9 DS-Cav1-105Q,28.8 nM
same,Kd,[4],127 nM
same,Kd,sc11 DS-Cav1,58.8 nM
same,Kd,[5],14 nM
same,Kd,[6],31.3 nM
same,Kd,sc9-24 DS-Cav1,20.8 nM
same,Kd,[7],13 nM
same,Kd,[8],79.7 nM
same,Kd,sc9-19 DS-Cav1,22.6 nM
same,Kd,[9],26.2 nM
same,Kd,[10],315 nM
same,Kd,[11],32.1 nM
same,Kd,[12],92.2 nM
AM14 Fab,Kd,[13],4.9 nM
same,Kd,[14],1.8 nM
same,Kd,[15],4.8 nM
same,Kd,[16],12.8 nM
same,Kd,[17],8.6 nM
same,Kd,[18],12.8 nM
same,Kd,sc8 DS-Cav1,1330 nM
same,Kd,[1],33.9 nM
same,Kd,[2],3.3 nM
same,Kd,[3],18.5 nM
same,Kd,sc9 DS-Cav1-105Q,46.2 nM
same,Kd,[4],1 nM
same,Kd,[5],787 nM
same,Kd,[6],33.1 nM
same,Kd,sc9-24 DS-Cav1,25.1 nM
same,Kd,[7],3.3 nM
same,Kd,[8],2210 nM
same,Kd,sc9-19 DS-Cav1,25.6 nM
same,Kd,[9],6.6 nM
same,Kd,[10],15.9 nM
same,Kd,[11],6.3 nM
same,Kd,[12],35.1 nM
AM14 antibody,ELISA signal (antigenicity),sc9-10 Cav1only 369-455,0.0785
same,ELISA signal (antigenicity),[19],0.0514
same,ELISA signal (antigenicity),sc9-10 Cav1only,3.31
same,ELISA signal (antigenicity),sc9-10 Cav1only 99-360,0.0553
same,ELISA signal (antigenicity),sc9-10 Cav1only 146-458,0.102
same,ELISA signal (antigenicity),sc9-10 Cav1only 99-361,2.64
same,ELISA signal (antigenicity),sc9-10 Cav1only 100-361,0.0969
same,ELISA signal (antigenicity),sc9-10 Cav1only 98-362,0.516
same,ELISA signal (antigenicity),sc9-10 Cav1only 100-362,0.0541
same,ELISA signal (antigenicity),[20],0.211
same,ELISA signal (antigenicity),[21],1.71
same,ELISA signal (antigenicity),sc9-10 Cav1only 100-360,0.344
same,ELISA signal (antigenicity),sc9-10 Cav1only 98-361,0.356
same,ELISA signal (antigenicity),RSVF Cav1only,2.81
same,ELISA signal (antigenicity),sc9-10 Cav1only 99-362,0.805
same,ELISA signal (antigenicity),RSVF dFP,0.05
same,ELISA signal (antigenicity),sc9-10 Cav1only 98-360,0.199
same,T1/2 of AM14 reactivity at 60 °C,[22],7.5 h
same,T1/2 of AM14 reactivity at 60 °C,[23],33.8 h
same,T1/2 of AM14 reactivity at 60 °C,[24],1.4 h
same,T1/2 of AM14 reactivity at 60 °C,[25],27.1 h
same,T1/2 of AM14 reactivity at 60 °C,[26],8.3 h
same,T1/2 of AM14 reactivity at 60 °C,[27],7.8 h
same,T1/2 of AM14 reactivity at 60 °C,[28],6 h
AM22 (Fab),Kd,sc8 DS-Cav1,3.9 nM
same,Kd,[1],0.1 nM
same,Kd,sc10 DS-Cav1,0.3 nM
same,Kd,[2],2.8 nM
same,Kd,[3],0.1 nM
same,Kd,sc9 DS-Cav1-105Q,< 0.01 nM
same,Kd,[4],0.2 nM
same,Kd,sc11 DS-Cav1,1.6 nM
same,Kd,[5],0.2 nM
same,Kd,[6],< 0.01 nM
same,Kd,sc9-24 DS-Cav1,0.3 nM
same,Kd,[7],< 0.01 nM
same,Kd,[8],0.4 nM
same,Kd,sc9-19 DS-Cav1,0.06 nM
same,Kd,[9],< 0.01 nM
same,Kd,[10],0.3 nM
same,Kd,[11],0.1 nM
same,Kd,[12],0.5 nM
